Source: publication PMC10995199, “Architecture and regulation of filamentous human cystathionine beta-synthase” (Nature Communications, 2024)

Target: the molecule itself
Assay: SEC + native gel or EMSA; control constructs in analytical Superose 6 gel filtration and clear-native and blue-native PAGE (Supplementary Fig. 2); self-association

B1: human cystathionine beta-synthase catalytic domain alone (CBS^CD, residues 1–413) (domain or fragment, UniProt P35520 1-413, looked up)
chain: MPSETPQAEVGPTGCPHRSGPHSAKGSLEKGSPEDKEAKEPLWIRPDAPSRCTWQLGRPASESPHHHTAPAKSPKILPDILKKIGDTPMVRINKIGKKFGLKCELLAKCEFFNAGGSVKDRISLRMIEDAERDGTLKPGDTIIEPTSGNTGIGLALAAAVRGYRCIIVMPEKMSSEKVDVLRALGAEIVRTPTNARFDSPESHVGVAWRLKNEIPNSHILDQYRNASNPLAHYDTTADEILQQCDGKLDMLVASVGTGGTITGIARKLKEKCPGCRIIGVDPEGSILAEPEELNQTEQTTYEVEGIGYDFIPTVLDRTVVDKWFKSNDEEAFTFARMLIAQEGLLCGGSAGSTVAVAVKAAQELQEGQRCVVILPDSVRNYMTKFLSDRWMLQKGFLKEEDLTEKKPWWWHLR
notes: source: E. coli Rosetta (DE3), purified
  stoichiometry N: 2
